The nature of this series: self-splicing fitness, log relative to wild type (ln ratio); higher = more splicing; Tetrahymena group I intron in knt gene, E. coli kanamycin selection, DiMSum; sequences stand for … in CUCUCU…GGAGGGAAAAGUUAUCAGGCAUGCACCUGGUAGCUAGUCUUUAAACCAAUAGAUUGCAUCGGUUUAAAAGGCAAGACCGUCAAAUUGCGGGAAAGGGGUCAACAGCCGUUCAGUACCAAGUCUCAGGGGAAACUUUGAGAUGGCCUUGCAAAGGGUAUGGUAAUAAGCUGACGGACAUGGUCCUAACCACGCAGCCAAGUCCUAAGUCAACAGAUCUUCUGUUGAUAUGGAUGCAGUUCACAGACUAAAUGUCGGUCGGGGAAGAUGUAUUCUUCUCAUAAGAUAUAGUCGGACCUCUCCUUAAUGGGAGCUAGCGGAUGAAGUGAUGCAACACUGGAGCCGCUGGGAACUAAUUUGUAUGCGAAAGUAUAUUGAUUAGUUUUGGAGUACUCGUGGUCG
In short, it runs like this: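 A randomised library covering all eight P1ex-region intron nucleotides was built with the intron in the knt kanamycin-resistance gene on pET-22b(+) and held in E. coli BL21(DE3). Cells were grown overnight at 37°C or 30°C on LB agar, with or without 25 μg/mL kanamycin, plus 100 μg/mL carbenicillin, 50 μM IPTG and 0.2% rhamnose, and pooled colonies were amplicon-sequenced on an Illumina HiSeq 2500. DiMSum fitness is the error-weighted combination of wild-type-normalised replicate fold changes, kanamycin versus none.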

± gives the uncertainty stated by the source.

On to UAACAGCAAUAUUACGGAAG, for which the “self-splicing fitness (ln)” value reads like this: (30 °C) -2.59 ± 0.12; (37 °C) -1.93 ± 0.12.
For UAACAGCAAUAUUACGGAAU the same measures were -3.31 ± 0.14 and -2.24 ± 0.15.
In the same order, the values of UAACAGCAAUAUUACGGCCG are -0.568 ± 0.078 and 0.226 ± 0.12.
Take UAACAGCAAUAUUACGGGCU: the “self-splicing fitness (ln)” value (30 °C) was -4.01 ± 0.21 and the “self-splicing fitness (ln)” value (37 °C) was -2.3 ± 0.16.
Consider UAACAGCAAUAUUACGGUGA, for which the “self-splicing fitness (ln)” value was -1.08 ± 0.075 (30 °C) and -0.658 ± 0.082 (37 °C).
With UAACAGCAAUAUUACGUAGG, the “self-splicing fitness (ln)” value was -2.08 ± 0.065 (30 °C) and -1.65 ± 0.079 (37 °C).
Consider UAACAGCAAUAUUACGUCGC, for which the “self-splicing fitness (ln)” value runs as follows: (30 °C) -3.59 ± 0.38; (37 °C) -2.73 ± 0.44.
For UAACAGCAAUAUUACGUCUC the same measures were -3.01 ± 0.12 and -3.02 ± 0.2.
In the same order, the values of UAACAGCAAUAUUACGUGAU are -2.4 ± 0.12 and -1.7 ± 0.17.
As for UAAGAGCAAUAUUACGAGUU, the “self-splicing fitness (ln)” value runs as follows: (30 °C) -3.16 ± 0.14; (37 °C) -2.87 ± 0.23.
In the same order, the values of UAAGAGCAAUAUUACGAUUG are -1.72 ± 0.11 and -0.83 ± 0.12.
Consider UAAGAGCAAUAUUACGCAGA, for which the “self-splicing fitness (ln)” value by setting is: (30 °C) -2.62 ± 0.18; (37 °C) -2.24 ± 0.23.
In the same order, the values of UAAGAGCAAUAUUACGCCAC are -2.07 ± 0.22 and -1.59 ± 0.29.
For UAAGAGCAAUAUUACGCCUU the same measures were -3.87 ± 0.25 and -2.89 ± 0.48.
In the same order, the values of UAAGAGCAAUAUUACGCGCA are -1.81 ± 0.2 and -1.16 ± 0.3.
For UAAGAGCAAUAUUACGCUGG, the “self-splicing fitness (ln)” value (30 °C) was -2.31 ± 0.26 and the “self-splicing fitness (ln)” value (37 °C) was -2.37 ± 0.27.
On to UAAGAGCAAUAUUACGGCCU, for which the “self-splicing fitness (ln)” value (30 °C) is -1.36 ± 0.47.
For the sequence UAAGAGCAAUAUUACGGCGA, the “self-splicing fitness (ln)” value (30 °C) is -2.7 ± 0.32 and the “self-splicing fitness (ln)” value (37 °C) is -2.09 ± 0.26.
As for UAAGAGCAAUAUUACGGUCA, the “self-splicing fitness (ln)” value runs as follows: (30 °C) -1.77 ± 0.18; (37 °C) -2.52 ± 0.17.
For UAAGAGCAAUAUUACGGUCG the same measures were -2.81 ± 0.16 and -1.85 ± 0.15.
In the same order, the values of UAAGAGCAAUAUUACGUAGU are -3.21 ± 0.19 and -2.32 ± 0.26.
Regarding UAAGAGCAAUAUUACGUCAC, the “self-splicing fitness (ln)” value reads like this: (30 °C) -2.67 ± 0.3; (37 °C) -2.04 ± 0.34.
For UAAGAGCAAUAUUACGUGUC the same measures were -3.09 ± 0.21 and -0.977 ± 0.17.
Consider UAAGAGCAAUAUUACGUUGG, for which, for the setting “30 °C”, the “self-splicing fitness (ln)” value is -2.87 ± 0.28.
As for UAAUAGCAAUAUUACGAAUA, the “self-splicing fitness (ln)” value is, setting by setting: (30 °C) -2.51 ± 0.34; (37 °C) -1.28 ± 0.17.
Regarding UAAUAGCAAUAUUACGACGA, the “self-splicing fitness (ln)” value runs as follows: (30 °C) -1.41 ± 0.13; (37 °C) -1.15 ± 0.14.
For UAAUAGCAAUAUUACGACUG the same measures were -0.137 ± 0.062 and 0.0819 ± 0.078.
In the same order, the values of UAAUAGCAAUAUUACGAUCG are 0.121 ± 0.076 and 0.472 ± 0.099.
In the same order, the values of UAAUAGCAAUAUUACGAUGA are -2.56 ± 0.19 and -1.48 ± 0.16.
Consider UAAUAGCAAUAUUACGCAGG, for which the “self-splicing fitness (ln)” value runs as follows: (30 °C) -1.82 ± 0.1; (37 °C) -1.48 ± 0.14.
For UAAUAGCAAUAUUACGCAUA the same measures were -1.13 ± 0.18 and -0.681 ± 0.15.
Consider UAAUAGCAAUAUUACGCCAA, for which the “self-splicing fitness (ln)” value (37 °C) is -2.37 ± 0.26.
As for UAAUAGCAAUAUUACGCCAC, the “self-splicing fitness (ln)” value by setting is: (30 °C) -1.32 ± 0.19; (37 °C) -1.89 ± 0.44.
In the same order, the values of UAAUAGCAAUAUUACGCUGA are -2.81 ± 0.28 and -1.23 ± 0.15.
For UAAUAGCAAUAUUACGGACG the same measures were -0.227 ± 0.12 and 0.175 ± 0.15.
In the same order, the values of UAAUAGCAAUAUUACGGAUU are -2.69 ± 0.36 and -1.02 ± 0.28.
UAAUAGCAAUAUUACGGUGA: the “self-splicing fitness (ln)” value reads like this: (30 °C) -3.61 ± 0.3; (37 °C) -2.39 ± 0.26.
With UAAUAGCAAUAUUACGUCGG, the “self-splicing fitness (ln)” value is -2.21 ± 0.11 (30 °C) and -1.49 ± 0.14 (37 °C).
For UAAUAGCAAUAUUACGUGUU the same measures were -1.68 ± 0.14 and -1.97 ± 0.17.
For UAAUAGCAAUAUUACGUUAA, the “self-splicing fitness (ln)” value reads like this: (30 °C) -3.02 ± 0.23; (37 °C) -2.53 ± 0.19.
In the same order, the values of UACAAGCAAUAUUACGAGUG are -1.35 ± 0.064 and -0.768 ± 0.071.
In the same order, the values of UACAAGCAAUAUUACGAUGA are -0.422 ± 0.072 and -0.314 ± 0.085.
In the same order, the values of UACAAGCAAUAUUACGCCCU are -0.317 ± 0.085 and -0.111 ± 0.12.
As to UACAAGCAAUAUUACGCCGC, where the note is “37 °C”, the “self-splicing fitness (ln)” value was -2.06 ± 0.43.
Consider UACAAGCAAUAUUACGCCGG, for which the “self-splicing fitness (ln)” value reads like this: (30 °C) -1.53 ± 0.11; (37 °C) -0.146 ± 0.18.
In the same order, the values of UACAAGCAAUAUUACGCCUG are -0.585 ± 0.081 and 0.17 ± 0.11.
In the same order, the values of UACAAGCAAUAUUACGCGCG are -0.759 ± 0.088 and 0.0647 ± 0.1.
For UACAAGCAAUAUUACGGAGU the same measures were -4.15 ± 0.29 and -1.71 ± 0.16.
With UACAAGCAAUAUUACGGCGC, the “self-splicing fitness (ln)” value is, setting by setting: (30 °C) -1.51 ± 0.085; (37 °C) -0.801 ± 0.099.
In the same order, the values of UACAAGCAAUAUUACGGGGG are -2.66 ± 0.14 and -2.02 ± 0.13.
For UACAAGCAAUAUUACGGUUG the same measures were -2.1 ± 0.11 and -1.91 ± 0.15.
In the case of UACAAGCAAUAUUACGUAAA, the “self-splicing fitness (ln)” value (30 °C) was -2.45 ± 0.073 and the “self-splicing fitness (ln)” value (37 °C) is -1.38 ± 0.087.
In the same order, the values of UACAAGCAAUAUUACGUAGA are -2.84 ± 0.14 and -1.46 ± 0.13.
In the same order, the values of UACAAGCAAUAUUACGUAGC are -3.5 ± 0.18 and -2.09 ± 0.2.
For UACAAGCAAUAUUACGUAUG the same measures were -3.68 ± 0.17 and -2.11 ± 0.14.
On to UACAAGCAAUAUUACGUCUU, for which the “self-splicing fitness (ln)” value reads like this: (30 °C) -3.55 ± 0.17; (37 °C) -1.68 ± 0.13.
In the same order, the values of UACAAGCAAUAUUACGUGGC are -3 ± 0.14 and -1.94 ± 0.22.
For UACAAGCAAUAUUACGUUCA the same measures were -0.621 ± 0.052 and -0.478 ± 0.069.
For the sequence UACAAGCAAUAUUACGUUCG, the “self-splicing fitness (ln)” value is -0.617 ± 0.074 (30 °C) and 0.321 ± 0.099 (37 °C).
In the same order, the values of UACAAGCAAUAUUACGUUCU are -1.28 ± 0.12 and -0.681 ± 0.12.
For UACCAGCAAUAUUACGAAAC the same measures were -2.69 ± 0.23 and -2.14 ± 0.27.
Consider UACCAGCAAUAUUACGAAGG, for which the “self-splicing fitness (ln)” value by setting is: (30 °C) -2.22 ± 0.11; (37 °C) -0.865 ± 0.12.
For UACCAGCAAUAUUACGAAGU the same measures were -2.48 ± 0.22 and -2.74 ± 0.28.
In the same order, the values of UACCAGCAAUAUUACGAGUU are -1.28 ± 0.073 and -0.876 ± 0.076.
In the same order, the values of UACCAGCAAUAUUACGCCAC are -3.59 ± 0.2 and -3.17 ± 0.37.
With UACCAGCAAUAUUACGCCCA, the “self-splicing fitness (ln)” value (30 °C) was -0.817 ± 0.1 and the “self-splicing fitness (ln)” value (37 °C) was -0.342 ± 0.14.
In the same order, the values of UACCAGCAAUAUUACGCGCC are -1.46 ± 0.12 and -1.1 ± 0.2.
With UACCAGCAAUAUUACGCGUA, the “self-splicing fitness (ln)” value runs as follows: (30 °C) -1.9 ± 0.074; (37 °C) -1.67 ± 0.093.
For the sequence UACCAGCAAUAUUACGGAAC, the “self-splicing fitness (ln)” value by setting is: (30 °C) -3.57 ± 0.44; (37 °C) -3.27 ± 0.27.
In the same order, the values of UACCAGCAAUAUUACGGGAA are -0.38 ± 0.087 and -0.618 ± 0.08.
In the same order, the values of UACCAGCAAUAUUACGGGGA are -1.24 ± 0.083 and -0.746 ± 0.083.
In the same order, the values of UACCAGCAAUAUUACGGGUA are -3.45 ± 0.14 and -3.02 ± 0.15.
As to UACCAGCAAUAUUACGGUGC, the “self-splicing fitness (ln)” value runs as follows: (30 °C) -3.21 ± 0.12; (37 °C) -2.64 ± 0.2.
In the same order, the values of UACCAGCAAUAUUACGUAAG are -3.73 ± 0.15 and -1.99 ± 0.15.
In the same order, the values of UACCAGCAAUAUUACGUAGA are -1.27 ± 0.072 and -0.78 ± 0.091.
For the sequence UACCAGCAAUAUUACGUAUG, the “self-splicing fitness (ln)” value by setting is: (30 °C) -2.62 ± 0.073; (37 °C) -1.58 ± 0.082.

The record behind these values is the supplement of paper PMC7877785.
